The source of these data is PMC3913438, “Nucleotide Pyrophosphatase/Phosphodiesterase 1 Exerts a Negative Effect on Starch Accumulation and Growth in Rice Seedlings under High Temperature and CO2 Concentration Conditions” (Plant and Cell Physiology, 2013).

Data set [1] deals with T1, NPP1 (Oryza sativa, UniProt Q0X0G2).
T1 construct: recombinant, purified from transgenic rice cells (UNP1) overexpressing NPP1 cDNA; 70 kDa SDS-PAGE, 251 kDa gel filtration; gene on chromosome 8
T1 sequence (Q0X0G2 26-623): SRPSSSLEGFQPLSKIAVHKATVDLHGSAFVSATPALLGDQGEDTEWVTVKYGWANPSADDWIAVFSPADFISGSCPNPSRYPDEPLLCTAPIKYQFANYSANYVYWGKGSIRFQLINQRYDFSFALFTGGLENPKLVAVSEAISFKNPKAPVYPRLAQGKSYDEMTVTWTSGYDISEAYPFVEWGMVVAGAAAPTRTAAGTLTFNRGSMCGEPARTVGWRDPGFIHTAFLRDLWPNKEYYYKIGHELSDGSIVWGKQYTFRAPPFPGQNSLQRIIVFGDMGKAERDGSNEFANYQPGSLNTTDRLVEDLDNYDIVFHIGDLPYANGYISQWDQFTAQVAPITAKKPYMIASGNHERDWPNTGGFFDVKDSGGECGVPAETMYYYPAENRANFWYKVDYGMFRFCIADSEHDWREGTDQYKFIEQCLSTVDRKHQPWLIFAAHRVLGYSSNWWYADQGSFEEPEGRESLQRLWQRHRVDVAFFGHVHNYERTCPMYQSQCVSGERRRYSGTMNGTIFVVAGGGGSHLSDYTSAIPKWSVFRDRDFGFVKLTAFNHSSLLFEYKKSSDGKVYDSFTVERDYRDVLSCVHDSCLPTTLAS
Description: hydrolysis kinetics, […] substrate. Format: biochemical. As to conditions: 37°C, optimal pH.

Substrate in data set [2]: O=c1ccn([C@@H]2O[C@H](COP(=O)(O)OP(=O)(O)O)[C@@H](O)[C@H]2O)c(=O)[nH]1
Description: purified protein. The settings on record: 37°C, optimal pH.

Substrate in data set [3]: Nc1ccn([C@@H]2O[C@H](COP(=O)(O)OP(=O)(O)O)[C@@H](O)[C@H]2O)c(=O)n1
Description: purified protein. The settings on record: 37°C, optimal pH. Format: biochemical, Oryza sativa.

Substrate in data set [4]: Nc1nc2c(ncn2[C@@H]2O[C@H](COP(=O)(O)OP(=O)(O)O)[C@@H](O)[C@H]2O)c(=O)[nH]1
Put plainly: purified protein. The data set is classed as biochemical, Oryza sativa. The settings on record: 37°C, optimal pH.

Substrate in data set [5]: Nc1ncnc2c1ncn2[C@@H]1O[C@H](COP(=O)(O)OP(=O)(O)O)[C@@H](O)[C@H]1O
Put plainly: purified protein. The data set is classed as biochemical, Oryza sativa. The settings on record: 37°C, no metal required.

Substrate in data set [6]: O=[N+]([O-])c1ccc(OP(=O)(O)Oc2ccc([N+](=O)[O-])cc2)cc1
Description: purified protein. As to conditions: 37°C, optimal pH. Format: biochemical, Oryza sativa.

Substrate in data set [7]: O=c1[nH]cnc2c1ncn2[C@@H]1O[C@H](COP(=O)(O)OP(=O)(O)O)[C@@H](O)[C@H]1O
Put plainly: purified protein. As to conditions: 37°C, optimal pH. Format: biochemical, Oryza sativa.

Substrate in data set [8]: NC(=O)c1ccc[n+]([C@@H]2O[C@H](COP(=O)(O)OP(=O)(O)OC[C@H]3O[C@@H](n4cnc5c(N)ncnc54)[C@H](O)[C@@H]3O)[C@@H](O)[C@H]2O)c1
Description: purified protein. Format: biochemical, Oryza sativa. The settings on record: 37°C, optimal pH.

Substrate in data set [9]: Nc1ncnc2c1ncn2[C@@H]1O[C@H](COP(=O)(O)OP(=O)(O)O[C@H]2O[C@H](CO)[C@@H](O)[C@H](O)[C@H]2O)[C@@H](O)[C@H]1O
Put plainly: purified protein. The data set is classed as biochemical, Oryza sativa. The settings on record: 37°C.

Substrate in data set [10]: NC(=O)c1ccc[n+]([C@@H]2O[C@H](COP(=O)([O-])OP(=O)(O)OC[C@H]3O[C@@H](n4cnc5c(N)ncnc54)[C@H](OP(=O)(O)O)[C@@H]3O)[C@@H](O)[C@H]2O)c1
Description: purified protein, by the assay type. Details: steady-state hydrolysis kinetics of purified recombinant rice NPPs, substrate 0.1-10 mM, 37 °C, optimal pH. The text has this: (§1) To carry out substrate specificity and kinetic studies of NPP1, NPP2 and NPP6, in this work we produced transgenic rice cells ectopically expressing NPP1, NPP2 and NPP6 and purified the corresponding recombinant proteins as described in the Materials and Methods. Details of the processes for purification of recombinant proteins and quality of the final preparations are shown in Supplementary Table S2 and Supplementary Fig. S1A. […] Purification procedures of NPP1, NPP2 and NPP6 expressed in the transgenic rice cells (UNP1, UNP2 and UNP6, respectively) were essentially identical to those used in the earlier study ([Nanjo et al. 2006]). They are summarized in Supplementary Table S2. Rice callus cells (200 g) derived from the seed embryos of UNP1, UNP2 and UNP6 lines were homogenized in 5 vols. of 10 mM Tris–HCl (pH 8.8) and filtered through four layers of gauze. The homogenates were centrifuged at 20,000 × g for 10 min. The supernatants were then adjusted to acidic pH 5.4 with acetate buffer and centrifuged at 20,000 × g. After re-adjustment to pH 7.4 with 1.5 M Tris–HCl (pH 8.8) and further centrifugation at 20,000 × g, the resulting supernatants were applied to a Con A–Sepharose 4B column (ø 1.0 × 8 cm, Pharmacia) equilibrated with 40 mM Tris–HCl (pH 7.4), 0.5 M NaCl, 1 mM MnCl2 and 1 mM CaCl2, and eluted with 25 ml of 0.5 M α-methyl-D-mannopyranoside in 10 mM Tris–HCl (pH 7.4). The eluents were applied to a Q Sepharose HP column (ø 1.0 × 3 cm, Pharmacia) equilibrated with 10 mM Tris–HCl (pH 7.4) and eluted with 50 ml of a linear gradient of 0–0.5 M NaCl in 10 mM Tris–HCl (pH 7.4). Finally, the enzyme preparation was desalted by ultrafiltration on a Microcon YM-100 (Amicon).

Substrate in data set [11]: O=P(O)(O)OP(=O)(O)O
Put plainly: purified protein. The data set is classed as biochemical, Oryza sativa. As to conditions: 37°C, optimal pH.

Substrate in data set [12]: O=c1ccn([C@@H]2O[C@H](CO[P@@](=O)(O)O[P@@](=O)(O)O[C@H]3O[C@H](CO)[C@@H](O)[C@H](O)[C@H]3O)[C@@H](O)[C@H]2O)c(=O)[nH]1
Description: purified protein, by the assay type. Also on record: steady-state hydrolysis kinetics of purified recombinant rice NPPs, substrate 0.1-10 mM, 37 °C, optimal pH.
Source text: as §1

[13] abbreviates: optimal pH (pH 4.5 with ADP), pH 4.5.
The mark [14] stands for this setting: optimal pH (pH 6.0 with ADP-glucose), no metal required, pH 6.0.
Setting [15] is: optimal pH (pH 4.0 with ADP), pH 4.0.
Where [16] appears, read: optimal pH (pH 5.0 with ADP-glucose), pH 5.0.

In the case of `Nc1ccn([C@@H]2O[C@H](COP(=O)(O)OP(=O)(O)O[C@H]3O[C@H](CO)[C@@H](O)[C@H](O)[C@H]3O)[C@@H](O)[C@H]2O)c(=O)n1` [CDP-glucose], the Km (in general, the concentration of substrate that gives half-maximal velocity) in [1] stood at 900 µM.

B1: NPP2 (Oryza sativa Japonica Group) (protein)
chain: RGDEQPLSRIAIERATVAAVDSASVKAQPTVLGLKGQSSDWVVVEFSHPKPSNDDWIGVFSPSGFSSEICQPEYYGDLPPYLCTSPIKFQYANFNNADYNRSGKGLLRLQLINQREDFSFALFSGGLSAPKLIAISNKVSFQNPKAPVYPRLAQGKSWNEMTVTWTSGYSIKEAIPFVEWGHKGGNQMLSPAGTLTFSRNSMCGSPARTVGWRDPGYIHTSFLKELWPDSLYTYRLGHRLLDGTHIWSKSYSFRASPYPGQDSVQRVVIFGDMGKAEIDGSDEYGNYEQASLYTTNQLIKELDSIDMVIHIGDLSYANGYLSQWDQFTQQIEPIASTVPYMIGSGNHERDWPGSGSFYGHNDSGGECGVPTQTMFYVPAENRAKLWYSTDYGMFRFCIADTEQDWRPGTEQYKFIEQCLSSVDRSKQPWLIFLAHRVLGYSSASWYEIMMGSYGEPMGRDGLEELWQKYKVDLAVFGHIHSYERTCPIYQNRCVQDGSNLYTGQFNATTHVIVGGGGAMLSPFRATVPYWSFFRDYDFGFSKLTALNHSTLLFEYKKSRDGKVYDHFTISRDYRDIMACSIDNCPRTTLAV
notes: recombinant, purified from transgenic rice cells (UNP2); 71 kDa SDS-PAGE, 374 kDa gel filtration; gene on chromosome 12
Take B1: the Michaelis constant (Km) is 1200 µM in data set [2]; 1900 µM in [3]; 900 µM in data set [4]; 1100 µM in data set [5] (setting [13]); 2600 µM in data set [6]; 2200 µM in [7]. Also, the Vmax – broadly, the top rate of the reaction or transport when substrate is in excess – in data set [2] turned out to be 85 µmol/min/mg; in [3], 76 µmol/min/mg; in data set [4], 24 µmol/min/mg; in data set [6] it was 60 µmol/min/mg; in data set [7], 75 µmol/min/mg. The catalytic constant (kcat) (in general, the number of substrate molecules converted per active site and unit of time at saturation) in [2] is 101 s⁻¹; in data set [3], 89 s⁻¹; in data set [4], 28 s⁻¹; in data set [5] (setting [13]), 80 s⁻¹; in data set [6] it was 71 s⁻¹; in data set [7] it was 88 s⁻¹. In addition, the kcat/Km (as a rule, the second-order rate constant that governs catalysis at low substrate concentration) in data set [2] worked out at 84000 M⁻¹ s⁻¹; in data set [3], 47000 M⁻¹ s⁻¹; in [4], 32000 M⁻¹ s⁻¹; in data set [5] (setting [13]), 73000 M⁻¹ s⁻¹; in data set [6], 27000 M⁻¹ s⁻¹; in data set [7], 40000 M⁻¹ s⁻¹.

B2: NPP1 (Oryza sativa Japonica Group) (protein)
chain: T1 sequence (Q0X0G2 26-623)
notes: recombinant, purified from transgenic rice cells (UNP1) overexpressing NPP1 cDNA; 70 kDa SDS-PAGE, 251 kDa gel filtration; gene on chromosome 8
Consider B2, for which, in data set [8], the Michaelis-Menten constant (Km) worked out at 800 µM, the Vmax was determined as 93 µmol/min/mg, the turnover number (kcat) was found to be 109 s⁻¹ and the kcat/Km stood at 133000 M⁻¹ s⁻¹. Besides, in data set [9] (setting [14]), the Km was 800 µM, the maximum rate (Vmax) is 183 µmol/min/mg, the turnover number (kcat) amounted to 214 s⁻¹ and the kcat/Km amounted to 250000 M⁻¹ s⁻¹. Besides, in data set [10], the Km came out at 1600 µM, the Vmax is 121 µmol/min/mg, the kcat turned out to be 141 s⁻¹ and the catalytic efficiency (kcat/Km) is 85000 M⁻¹ s⁻¹.

B3: NPP6 (Oryza sativa Japonica Group) (protein)
chain: GGGGGVWAFSSSSSSSSYSRIGEQPLSLIGIHRATVGIDAAASVQASPRLLGVKGEDTAWVTVDFAAPHASDGDWIGVFSPSNFNASTCPGPSGSDSGPVICSAPIKYQLANYSSDYGKTGKGTLKFQLINQRQDFSFALFTGGLSNPKLIAVSNKIAFANPKAPVYPRLAQGKSWNEMTVTWTSGYDIKEAYPFVEWGMKWSPPTRTAAGTVTFDRESLCGEPARTVGWRDPGFIHTAFLTDLWPNKEYYYKIGHMLPDGKIVWGKFYSFKAPPFPGQKSLQRVVIFGDMGKAERDGSNEYSNYQPGSLNTTDTLIKDLDNIDIVFHIGDITYANGYISQWDQFTQQVEPITARVPYMIASGNHERDWPNSGSFFNGTDSGGECGVLAETMYYTPTENRANYWYKTDYGMFRFCVADSEHDWREGTEQYAFIESCLATVDRKKQPWLVFIAHRVLGYSSGFFYGAGGAFAEPTARQSLQRLWQRHRVDLAFYGHVHNYERTCPVYDGRCASPERSRYSGAVGGTIHAVVGGGGSHLSNFTAEAPPWSVYREMDYGFVKLTAFNYTSLLYEYRRSSDGEVHDSFTVHREYRDVLACVADSCPPTIPPAT
notes: recombinant, purified from transgenic rice cells (UNP6); 74 kDa SDS-PAGE, 224 kDa gel filtration; gene on chromosome 9
In the case of B3, the Michaelis constant (Km) turned out to be 500 µM in [2]; 300 µM in data set [5] (setting [15]); 700 µM in data set [9] (setting [16]); 500 µM in data set [11]; 3000 µM in data set [6]; 1600 µM in [12]. Further, the Vmax came out at 84 µmol/min/mg in [2]; 68 µmol/min/mg in data set [5] (setting [15]); 105 µmol/min/mg in data set [9] (setting [16]); 64 µmol/min/mg in [11]; 250 µmol/min/mg in [6]. Also, the catalytic constant (kcat) in data set [2] is 104 s⁻¹; in data set [5] (setting [15]), 83 s⁻¹; in data set [9] (setting [16]), 130 s⁻¹; in data set [11], 79 s⁻¹; in data set [6], 308 s⁻¹; in data set [12], 115 s⁻¹. Besides, the kcat/Km in [2] turned out to be 203000 M⁻¹ s⁻¹; in [5] (setting [15]), 297000 M⁻¹ s⁻¹; in data set [9] (setting [16]), 193000 M⁻¹ s⁻¹; in data set [11], 175000 M⁻¹ s⁻¹; in data set [6] it was 103000 M⁻¹ s⁻¹; in [12], 73000 M⁻¹ s⁻¹.
